Consider four variants from PMC7090148 (2020).

B1: Mouse OFD1, wild type [mouse] / NTAP-tagged TRAPPC12 [mouse] (parent complex)
chain 1: MAQSNMPHKSDVLSQDELRKKLYQTFKDRGVLDTLQTQLRNQLIHELMHPVLSGEVKPPSISVEGSALLIGASNSLVADHLQRCGYEYSLSVFFPESGLAKEKIFTMQDLLQLIRINPSSSLYKSLISGFDKENKKGFLMSFLKELAEYYQAKESCDAETQTSTTFPSQVSLAEKFQLIDAQFADGFPHRSKLESLETKLNEYKKEVQHQLQVEMCHKLKYFREAEITKVKMEERRKYEKELAEFQNEFERTCQAKNEALISQEKNSLERIKKHREMESKEIYAQRQLLLNDIALLRGREAELKERIETFELTQKLQEEKIKSEAEALERREQNLKNIEDTYDQKLKTELLKYQLELKDDYITRTNKLLEEERKNKEKTIHLQEELTVINSKKEELSKSVKHMKEVELELESVKAQFLAISKQNHLLNEKVREMSDYSQLKEEKVELQAQNKLLKLQLEETRNENLRLLDRITQPPPELVIFQKELQKTEKAMELEHKDFETHRQALEKQLQSEIENSAQLRTQIAEYDASVKRLTVQVAELKSQLKQTQIALENEVYRNPKHSLIHSLSGLLLSGKMAPHSEDKSGDFLNVPLEQNKVIAGAVMSRVPPYVNTATEASSPESDFEFIASSTKAKVRELEQEAERLEKAFRTYYQRATQNPSTSPQPAKSPPSVNSVAALRSIASSSMDRPVSAEDRVVSEQPLGDMLKEEMSDMSKAFMGSVVSRPRRTSSSTRLSSTPHPKSRRSLDNEMYLEGLGRLHMTSSSPLLDRVSASPAASPSPCPERTAQASPVPSRHSFSGLPEQNACLYQRQTETQDKSELSNVDKQSLKDEKFEPPFRWNKTEQFEAEGLHPAGDMPGIDFAVATQSSRLISYDYPSAVQSQTGEQDEQELWELHMKERRQREEQRHNERQEALERERRELGKLEQERRMIEESLKMEMEEELEKSVQDQKDKSAHCENTLEKYMKIIQQRQEESNADKSSKKSGKECSLVDMMMPSDKDESSPGFSHEEPDDMW
chain 2: METAKDGEQSPSEASPSAQAGPENIPEPMSREEESQPLYHEETIDLGGDEFASEENEPTSEGSHNFGDKLNEHMMESVLISDSPNNSEGDVGDLGCLQDVGEPPRGATDHRLPSSTDKEVVDTLSNGSETDGDDTPRDISDMTPDSRASLKEDSTQEDVTSMPALENAATEEVGPKDSLAPREEQTSEVSSNQSSSKDEPLPVCTIFSQATATPSQPHLFLQDGFESQMVKSPSFSSTSETSAKTPPPMVQPSPSLSTFFGDTMSSNSLASDFFDSFTTSTFISVSNPNAGSPVPEKLSSLTAPVGEKSPDSTSPSYSTRMDRSESGVSRAPLDVPESPKPFSQIQAVFAGSDDPFATALSMSEMDRRNDAWLPSQATREVLMSVATQQYGTVFIDKENLTMPGLKFDNIQGDAVKDLMLRFLGEKAAAKRQVLNASSVEQSFVGLKQLISCRNWRAAVDLCGRLLTAHGQGYGKNGLPTSHTTDSLQLWFVRLALLVKLGLFQNAEMEFEPFGNLDQPDLYYEYYPHVYPGRRGSMVPFSMRILHAELQQYLGNPQESLDRLHRVKTVCSKILANLEQGLAEDGGLSSVTQESRQASVQLWRSRLGRVLYSMANCLLLMKDYVLAVDAYLTVIKYYPEQEPQLLSGIGRILLQIGDIKTAEKYFQDVEKVTQKLDGLQGKIMVLMNRAFLYLGQNNFAEAHKFFTEILRMDPTNAVANNNAAVCLLYLGKLKDSLRQLEAMVQQDPRHYLHESVLFNLTTMYELESSRSMQKKQSLLEAVASKEGDSFNTQCLKLA

The experiment covers variants of B1. As to the kind of experiment: co-IP (IP: anti-Myc, immunoblot); IP: anti-Myc; 0.5% input; parent: 1.
Take chain 1 A78T: the ratio to parent stood at 0.97.

As for chain 1 S435R, the ratio to parent worked out at 0.98.

Turning to chain 1 G137S, the ratio to parent was 0.91.

Turning to chain 1 S73F, the ratio to parent was 0.39.
